Paper PMC5123071, “The Apaf-1 apoptosome induces formation of caspase-9 homo- and heterodimers with distinct activities” (Nature Communications, 2016)
Substitutions are numbered along the chain they refer to.

T1: recombinant full-length Apaf-1XL (UniProt O14727-1 1-1248)
T1 construct: Oligomerised into the apoptosome with bovine cytochrome c (Sigma) and dATP/MgCl2; also called oligomerized Apaf-1; Apaf-1 apoptosome; source: Hi-five or Sf21 cells, baculovirus, purified
T1 sequence (looked up): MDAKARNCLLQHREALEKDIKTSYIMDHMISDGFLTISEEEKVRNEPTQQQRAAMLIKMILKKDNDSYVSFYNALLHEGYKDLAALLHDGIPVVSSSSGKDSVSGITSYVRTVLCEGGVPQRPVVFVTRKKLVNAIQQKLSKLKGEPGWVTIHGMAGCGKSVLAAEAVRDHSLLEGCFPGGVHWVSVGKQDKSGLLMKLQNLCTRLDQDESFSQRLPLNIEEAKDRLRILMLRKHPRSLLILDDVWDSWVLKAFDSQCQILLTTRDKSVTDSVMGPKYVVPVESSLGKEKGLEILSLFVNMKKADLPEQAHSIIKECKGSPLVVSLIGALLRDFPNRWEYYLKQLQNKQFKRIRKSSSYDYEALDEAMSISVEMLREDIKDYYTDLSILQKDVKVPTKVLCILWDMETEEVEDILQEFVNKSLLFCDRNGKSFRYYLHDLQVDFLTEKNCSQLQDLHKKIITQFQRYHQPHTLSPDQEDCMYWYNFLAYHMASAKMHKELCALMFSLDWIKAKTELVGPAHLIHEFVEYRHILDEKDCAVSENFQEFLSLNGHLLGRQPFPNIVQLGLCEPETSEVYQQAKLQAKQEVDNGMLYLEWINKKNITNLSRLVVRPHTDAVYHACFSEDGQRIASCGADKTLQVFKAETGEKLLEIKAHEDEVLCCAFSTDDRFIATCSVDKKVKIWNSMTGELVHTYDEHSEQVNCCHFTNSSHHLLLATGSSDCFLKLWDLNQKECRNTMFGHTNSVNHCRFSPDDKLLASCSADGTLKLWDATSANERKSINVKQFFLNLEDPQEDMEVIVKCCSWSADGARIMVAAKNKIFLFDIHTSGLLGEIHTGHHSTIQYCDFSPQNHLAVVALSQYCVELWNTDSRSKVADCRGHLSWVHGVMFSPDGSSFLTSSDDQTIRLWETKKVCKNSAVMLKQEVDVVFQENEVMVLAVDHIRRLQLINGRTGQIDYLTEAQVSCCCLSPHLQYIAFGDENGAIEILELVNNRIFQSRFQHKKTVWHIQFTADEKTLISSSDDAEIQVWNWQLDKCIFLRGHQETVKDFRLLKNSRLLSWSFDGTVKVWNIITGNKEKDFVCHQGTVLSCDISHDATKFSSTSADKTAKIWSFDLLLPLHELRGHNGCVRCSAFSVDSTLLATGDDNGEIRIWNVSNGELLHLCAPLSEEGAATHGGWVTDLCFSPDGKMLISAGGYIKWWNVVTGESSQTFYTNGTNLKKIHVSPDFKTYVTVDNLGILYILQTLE

T2: processed two-chain caspase-9 C9-p35/p12 (UniProt P55211 1-315; P55211 316-416)
T2 construct: caspase-9, p35 (prodomain and large subunit), ends at Asp-315 (PEPD315); caspase-9, p12 small subunit with the intersubunit linker, begins after Asp-315; Purified on Ni2+-NTA; also called processed C9; cleaved C9; source: E. coli BL21(DE3)pLysS, wild-type ProC9 overexpressed and autocleaved at Asp-315, purified (Ni2+-NTA, Mono-Q)
T2 sequence (looked up) 1: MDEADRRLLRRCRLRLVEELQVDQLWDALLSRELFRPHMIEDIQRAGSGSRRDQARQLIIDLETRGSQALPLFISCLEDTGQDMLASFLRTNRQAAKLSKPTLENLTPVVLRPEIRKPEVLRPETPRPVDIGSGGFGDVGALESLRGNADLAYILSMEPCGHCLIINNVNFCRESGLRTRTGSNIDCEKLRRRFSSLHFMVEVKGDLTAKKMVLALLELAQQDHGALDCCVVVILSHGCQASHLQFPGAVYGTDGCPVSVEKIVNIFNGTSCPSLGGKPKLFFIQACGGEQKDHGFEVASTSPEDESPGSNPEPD
T2 sequence (looked up) 2: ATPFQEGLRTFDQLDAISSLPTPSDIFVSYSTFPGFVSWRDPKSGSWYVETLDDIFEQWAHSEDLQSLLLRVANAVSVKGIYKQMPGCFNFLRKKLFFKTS

B1: Apaf-1 NOD protein (127-530) (domain or fragment, UniProt O14727 127-530, looked up)
chain: VTRKKLVNAIQQKLSKLKGEPGWVTIHGMAGCGKSVLAAEAVRDHSLLEGCFPGGVHWVSVGKQDKSGLLMKLQNLCTRLDQDESFSQRLPLNIEEAKDRLRILMLRKHPRSLLILDDVWDSWVLKAFDSQCQILLTTRDKSVTDSVMGPKYVVPVESSLGKEKGLEILSLFVNMKKADLPEQAHSIIKECKGSPLVVSLIGALLRDFPNRWEYYLKQLQNKQFKRIRKSSSYDYEALDEAMSISVEMLREDIKDYYTDLSILQKDVKVPTKVLCILWDMETEEVEDILQEFVNKSLLFCDRNGKSFRYYLHDLQVDFLTEKNCSQLQDLHKKIITQFQRYHQPHTLSPDQEDCMYWYNFLAYHMASAKMHKELCALMFSLDWIKAKTELVGPAHLIHEFVEYR
notes: aa 127–530); Oligomerised with dATP/MgCl2; also called T7-NOD; NOD apoptosome complexes; source: E. coli BL21(DE3)pLysS, purified (Ni2+-NTA, Mono-Q; MBP removed with TEV protease, negative selection on Ni2+-NTA beads; not shown: MBP, N-terminal, cleaved; His6, internal (between MBP and NOD), cleaved
B2: C9 prodomain (domain or fragment)
chain: MDEADRRLLRRCRLRLVEELQVDQLWDALLSRELFRPHMIEDIQRAGSGSRRDQARQLIIDLETRGSQALPLFISCLEDTGQDMLASFLRTNRQAAKLSKPTLENLTPVVLRPEIRKPEVLRPETPRPVDIGSGGFG
B3: C9-p35/p12-CIVSM (enzyme)
chain 1: T2 sequence (looked up) 1
chain 2: T2 sequence (looked up) 2 with G87C, C88I, F89V, N90S, F91M
notes: caspase-9, p35 (prodomain and large subunit), ends at Asp-315; caspase-9, p12 small subunit, GCFNF dimer motif replaced by the caspase-3 motif CIVSM; Homodimer by SEC-MALS; also called GCFNF→CIVSM; source: E. coli BL21(DE3)pLysS, ProC9-CIVSM fully processed during expression, purified (Ni2+-NTA, Mono-Q); copies: 2 + 2
B4: biotinylated Apaf-1 CARD-LZ-Avi (domain or fragment)
chain: not shown
modifications: biotin on the AviTag (BirA)
notes: Apaf-1 CARD (1-137); GCN4 leucine zipper, C-terminal to the CARD, followed by the AviTag and the His6-tag; Cloned into pRSF-Duet1; also called Apaf-1 CARDs; source: E. coli BL21(DE3)pLysS, purified (Ni2+-NTA, Mono-Q), biotinylated with BirA, avidin column

Assays:
[1] = molecular target: the molecule itself; test: SEC; Apaf-1 NOD (1.5 μM) and ΔPro-C9-TM (80 nM) with dATP/MgCl2 (2 mM each), 30 min 37 °C; Superose-6 in 20 mM HEPES, 50 mM NaCl, 10 mM DTT, pH 8.0; fractions immunoblotted with anti-T7
[2] = molecular target: B4; test: SPR; biotinylated Apaf-1 CARD-LZ-Avi immobilised on an SA chip; C9 proteins 125 nM-2 μM as analytes; 0.01 M HEPES, 0.15 M NaCl, 3 mM EDTA, 0.05% P20; room temperature; affinities by equilibrium analysis, kinetics fitted to a two-state model; details: both partners purified
[3] = molecular target: the molecule itself; test: SEC-MALS; recombinant C9 proteins 200 μl at 40 μM; 20 mM HEPES, 50 mM NaCl, pH 8.0; 0.5 ml/min
[4] = molecular target: T1, recombinant full-length Apaf-1XL; test: SEC; Apaf-1 (300 nM) with C9 protein (200 nM) and Cc/dATP, 30 min 37 °C; Superose-6 gel filtration, pooled fractions precipitated and immunoblotted for Apaf-1 and C9; details: both partners purified
[5] = molecular target: T2, processed two-chain caspase-9 C9-p35/p12; test: SPR; biotinylated Apaf-1 CARD-LZ-Avi immobilised on an SA chip; C9 proteins 125 nM-2 μM as analytes; 0.01 M HEPES, 0.15 M NaCl, 3 mM EDTA, 0.05% P20; room temperature; affinities by equilibrium analysis, kinetics fitted to a two-state model; details: both partners purified
C9-p35/p12-CIVSM = molecular target: B3; test: as above; details: both partners purified

B1
binding result [1]: binds

B2
Kd [2]: 41800 nM

B3
stoichiometry N [3]: 2
binding result [4]: binds

B4
Kd [5]: 388 nM
Kd (C9-p35/p12-CIVSM): 68 nM
